Data on 9 molecules can be found in PMC5746249, “Novel linear motif filtering protocol reveals the role of the LC8 dynein light chain in the Hippo pathway” (PLoS Computational Biology, 2017).

B1: WWC2 LC8 binding motif peptide, start 282 (peptide)
chain: RQTLDAGSQTS
modifications: core 282-289 printed; 11-mer assumed to add 3 N-terminal residues, as in the S1 Table motif format; termini chemistry not stated
B2: WWC3 LC8 binding motif peptide, start 208 (peptide)
chain: QQFCDAGSQTD
modifications: printed start 208 appears to be in older 1092-aa numbering (current entry +124, so core 332-339); 11-mer assumed to add 3 N-terminal residues, as in the S1 Table motif format
B3: AMOTL2 LC8 binding motif peptide, start 724 (peptide)
chain: HGSRDGSTQTE
modifications: core 724-731 printed; 11-mer assumed to add 3 N-terminal residues, as in the S1 Table motif format; termini chemistry not stated
B4: AMOT LC8 binding motif peptide, start 860 (peptide)
chain: TGSRDCSTQTE
modifications: core 860-867 printed; 11-mer assumed to add 3 N-terminal residues, as in the S1 Table motif format; termini chemistry not stated
B5: AMOTL1 LC8 binding motif peptide, start 873 (peptide)
chain: TGSKDSSTQTD
modifications: core 873-880 printed; 11-mer assumed to add 3 N-terminal residues, as in the S1 Table motif format; termini chemistry not stated
B6: WWC1 (KIBRA) LC8 binding motif peptide, start 887 (peptide)
chain: ALKVDKETNTE
modifications: core 887-894 printed; 11-mer assumed to add 3 N-terminal residues, as in the S1 Table motif format; termini chemistry not stated
B7: WWC1 (KIBRA) LC8 binding motif peptide, start 278 (peptide)
chain: KQYLDVSSQTD
modifications: core 278-285 printed; S1 Table prints the 11-mer KQYLDVSSQTD starting at 275; termini chemistry not stated
B8: WWC2 LC8 binding motif peptide, start 962 (peptide)
chain: PTLVDKETNTD
modifications: core 962-969 printed; 11-mer assumed to add 3 N-terminal residues, as in the S1 Table motif format; termini chemistry not stated
B9: WWC3 LC8 binding motif peptide, start 867 (peptide)
chain: PLKVDKETNTE
modifications: printed start 867 appears to be in older 1092-aa numbering (current entry +124, so core 991-998); 11-mer assumed to add 3 N-terminal residues, as in the S1 Table motif format

The target in this experiment is LC8 dynein light chain (DYNLL2), full-length, His6-tagged (human (by the printed accession Q96FJ2), UniProt Q96FJ2 1-89). Description: SPR; His6-LC8 immobilised on Ni2+-NTA HTG sensor chip (ProteOn XPR36) at three densities (1200, 900, 600 RU); peptides injected at five concentrations, 60 ul/min; 20 mM Hepes, 150 mM NaCl, 0.05% Tween-20, 0.1 mM TCEP, 50 uM EDTA, pH 7.5; 1:1 Langmuir global fit; apparent Kd, mean of kinetic and equilibrium analysis. As to conditions: both partners purified.
Sequence of LC8 dynein light chain (DYNLL2), full-length, His6-tagged (Q96FJ2 whole entry, one chain of several): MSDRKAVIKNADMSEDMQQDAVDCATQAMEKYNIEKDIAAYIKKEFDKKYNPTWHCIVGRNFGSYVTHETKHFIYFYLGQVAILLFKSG
For B1, the Kd is 32.7 µM.

Take B2: the Kd stood at 5.34 µM.

Turning to B3, the Kd came out at 1.98 µM.

As to B4, the Kd was 1.2 µM.

As for B5, the Kd amounted to 1.55 µM.

In the case of B6, the Kd was found to be 4 µM.

In the case of B7, the Kd stood at 0.45 µM.

As for B8, the Kd was determined as 17.6 µM.

Consider B9, for which the Kd was determined as 3.5 µM.
